Test [1] addresses T1, human C1q (Sigma C0660) (human, UniProt P02745 23-245; P02746 28-253; P02747 29-245).
T1 construct: Bought protein; also called complement protein C1q
Description: C1q ELISA on CD2, purified. On the procedure:
(§1) The C1q binding assay was performed by coating 96 well Maxisorb ELISA plates (Nalge-Nunc Rochester, N.Y., USA) with 50 μl recombinant soluble human CD2 at 10 μg/ml overnight at 4° C. in PBS. The wells were aspirated and washed three times with wash buffer (PBS, 0.05% Tween 20) and blocked for >1 h with 200 μ/well of block/diluent buffer (0.1 M Na₂HPO₄, pH 7, 0.1 M NaCl, 0.05% Tween 20, 0.1% gelatin). The antibody to be tested was diluted in block/diluent buffer starting at 15 μg/ml with 3-fold dilutions. 50 μl were added per well, and the plates incubated for 2 h at room temperature. After aspirating and washing as above, 50 μl/well of 2 μg/ml of Sigma human C1q (C0660) diluted in block/diluent buffer was added and incubated for 1.5 h at room temperature. After aspirating and washing as above, 50 μl/well of chicken anti human C1q (Cedarlane laboratories CL2101AP), diluted 2,000-fold in block/diluent buffer, was added. After incubation for 1.5 h at room temperature, the wells were aspirated and washed as above. 50 μl/well of donkey F(ab′)₂ anti chicken IgY HRP conjugate (Jackson ImmunoResearch 703-036-155) diluted to 1:5,000 in block/diluent was then added, and the wells incubated for 1 h at room temperature. After aspirating and washing as above, 100 μl TMB substrate (420 μM TMB, 0.004% H₂O₂ in 0.1 M sodium acetate/citric acid buffer, pH 4.9) was added and incubated for 2 min before the reaction was stopped with 100 μl 2 N sulfuric acid. The absorbance was read at 450 nm with a Softmax P instrument, and Softmax software was used to determine the relative binding affinity (C value) with a 4-parameter fit.

Test [2] has as its target T2, human FcγRI (CD64) on IFNγ-activated U937 cells (human, UniProt P12314 16-374).
T2 construct: whole, on cells; also called FcγR1
Description: CD64 bridging assay, purified.

For test [3], the target named is T3, human FcγRIII (CD16), CD16a (F158), on CD16-transfected Jurkat cells (human, UniProt P08637 17-254).
T3 construct: whole, on cells
Put plainly: CD16 bridging assay, transient.

Test [4] has as its target T1, human C1q (Sigma C0660). Put plainly: C1q ELISA on CD2, transient. On the procedure:
as §1

The results in this text go back to patent publication US20100203046A1 (Biogen, published 2010).

T1 sequence (P02745 23-245 limits assumed, chain 1 of 3): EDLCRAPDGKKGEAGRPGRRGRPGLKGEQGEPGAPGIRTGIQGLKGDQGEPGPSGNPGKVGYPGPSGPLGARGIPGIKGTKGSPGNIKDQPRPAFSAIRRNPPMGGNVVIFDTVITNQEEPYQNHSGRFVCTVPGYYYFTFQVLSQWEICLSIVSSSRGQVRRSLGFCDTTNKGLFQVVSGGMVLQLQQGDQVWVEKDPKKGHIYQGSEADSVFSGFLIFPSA
T1 sequence (P02746 28-253 limits assumed, chain 2 of 3): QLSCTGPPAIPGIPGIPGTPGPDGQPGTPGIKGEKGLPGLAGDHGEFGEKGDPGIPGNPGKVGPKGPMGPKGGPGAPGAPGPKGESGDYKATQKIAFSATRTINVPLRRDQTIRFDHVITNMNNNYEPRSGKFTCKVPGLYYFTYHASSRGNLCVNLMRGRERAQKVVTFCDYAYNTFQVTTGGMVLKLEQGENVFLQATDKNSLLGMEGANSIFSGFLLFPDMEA
T1 sequence (P02747 29-245 limits assumed, chain 3 of 3): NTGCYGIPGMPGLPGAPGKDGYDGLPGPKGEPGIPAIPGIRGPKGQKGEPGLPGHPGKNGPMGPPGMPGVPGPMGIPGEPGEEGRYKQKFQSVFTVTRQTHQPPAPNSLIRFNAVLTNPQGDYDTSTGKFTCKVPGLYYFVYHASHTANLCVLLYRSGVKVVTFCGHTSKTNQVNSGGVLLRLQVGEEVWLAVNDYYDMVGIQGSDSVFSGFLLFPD
T3 sequence (P08637 17-254): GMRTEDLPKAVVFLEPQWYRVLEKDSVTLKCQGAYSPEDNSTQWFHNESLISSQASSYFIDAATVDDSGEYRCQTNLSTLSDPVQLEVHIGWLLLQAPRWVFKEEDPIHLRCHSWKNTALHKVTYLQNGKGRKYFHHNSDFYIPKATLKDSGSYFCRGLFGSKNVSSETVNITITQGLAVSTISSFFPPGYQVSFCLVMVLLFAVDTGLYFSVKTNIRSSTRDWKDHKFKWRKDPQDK
T2 sequence (P12314 16-374): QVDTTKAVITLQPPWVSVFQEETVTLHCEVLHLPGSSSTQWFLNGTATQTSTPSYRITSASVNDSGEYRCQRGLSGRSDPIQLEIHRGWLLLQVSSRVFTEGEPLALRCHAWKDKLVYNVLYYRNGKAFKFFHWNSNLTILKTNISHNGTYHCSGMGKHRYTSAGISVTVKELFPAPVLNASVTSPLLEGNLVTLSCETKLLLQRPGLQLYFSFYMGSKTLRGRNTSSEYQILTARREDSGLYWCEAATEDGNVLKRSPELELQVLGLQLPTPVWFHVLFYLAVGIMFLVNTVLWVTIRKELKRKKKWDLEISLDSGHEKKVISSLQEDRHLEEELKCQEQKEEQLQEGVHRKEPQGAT

B1: chCB6-huIgG1 K334D (antibody, name in EU numbering)
heavy: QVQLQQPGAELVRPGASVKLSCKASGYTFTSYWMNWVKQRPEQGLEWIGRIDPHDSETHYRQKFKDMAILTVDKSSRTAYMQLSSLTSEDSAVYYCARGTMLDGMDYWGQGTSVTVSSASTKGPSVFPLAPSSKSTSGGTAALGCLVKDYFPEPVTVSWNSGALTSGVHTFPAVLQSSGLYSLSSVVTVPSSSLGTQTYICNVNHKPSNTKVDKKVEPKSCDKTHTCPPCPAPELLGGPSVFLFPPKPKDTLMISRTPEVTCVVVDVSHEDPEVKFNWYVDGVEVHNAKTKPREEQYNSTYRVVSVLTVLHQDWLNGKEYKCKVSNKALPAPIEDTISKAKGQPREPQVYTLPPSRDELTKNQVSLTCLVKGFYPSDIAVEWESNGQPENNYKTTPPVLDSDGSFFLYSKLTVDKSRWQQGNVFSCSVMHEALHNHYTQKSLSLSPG
light: QIVLTQSPAIMSASPGEKVTMTCRASSSVSHMHWYQQKSGTSPKRWIYDTSKLASGVPARFSGSGSGTSYSLTISSVEAEDAATYYCQQWSSNPLTFGAGTKLELKRTVAAPSVFIFPPSDEQLKSGTASVVCLLNNFYPREAKVQWKVDNALQSGNSQESVTEQDSKDSTYSLSSTLTLSKADYEKHKVYACEVTHQGLSSPVTKSFNRGEC
notes: copies: 2 + 2
Take B1: the binding result (with human C1q (Sigma C0660) [1]; in test [2]; in test [3]) was “binds” throughout.

B2: chCB6-huIgG1 D265E (antibody, name in EU numbering)
heavy: not shown
light: QIVLTQSPAIMSASPGEKVTMTCRASSSVSHMHWYQQKSGTSPKRWIYDTSKLASGVPARFSGSGSGTSYSLTISSVEAEDAATYYCQQWSSNPLTFGAGTKLELKRTVAAPSVFIFPPSDEQLKSGTASVVCLLNNFYPREAKVQWKVDNALQSGNSQESVTEQDSKDSTYSLSSTLTLSKADYEKHKVYACEVTHQGLSSPVTKSFNRGEC
notes: copies: 2 + 2
Take B2: the binding result in test [3] is on record as “no binding”.

B3: chCB6-huIgG1 D270E (antibody, name in EU numbering)
heavy: not shown
light: QIVLTQSPAIMSASPGEKVTMTCRASSSVSHMHWYQQKSGTSPKRWIYDTSKLASGVPARFSGSGSGTSYSLTISSVEAEDAATYYCQQWSSNPLTFGAGTKLELKRTVAAPSVFIFPPSDEQLKSGTASVVCLLNNFYPREAKVQWKVDNALQSGNSQESVTEQDSKDSTYSLSSTLTLSKADYEKHKVYACEVTHQGLSSPVTKSFNRGEC
notes: copies: 2 + 2
Turning to B3, the binding result in test [3] is reported as “binds”.

B4: chCB6-huIgG1 K338M (antibody, name in EU numbering)
heavy: not shown
light: QIVLTQSPAIMSASPGEKVTMTCRASSSVSHMHWYQQKSGTSPKRWIYDTSKLASGVPARFSGSGSGTSYSLTISSVEAEDAATYYCQQWSSNPLTFGAGTKLELKRTVAAPSVFIFPPSDEQLKSGTASVVCLLNNFYPREAKVQWKVDNALQSGNSQESVTEQDSKDSTYSLSSTLTLSKADYEKHKVYACEVTHQGLSSPVTKSFNRGEC
notes: copies: 2 + 2
Consider B4, for which the “fold decrease in binding vs WT” value in test [3] was 6 fold.

B5: chCB6-huIgG1 Y296F (antibody, name in EU numbering)
heavy: not shown
light: QIVLTQSPAIMSASPGEKVTMTCRASSSVSHMHWYQQKSGTSPKRWIYDTSKLASGVPARFSGSGSGTSYSLTISSVEAEDAATYYCQQWSSNPLTFGAGTKLELKRTVAAPSVFIFPPSDEQLKSGTASVVCLLNNFYPREAKVQWKVDNALQSGNSQESVTEQDSKDSTYSLSSTLTLSKADYEKHKVYACEVTHQGLSSPVTKSFNRGEC
notes: copies: 2 + 2
Take B5: the “fold decrease in binding vs WT” value in test [3] came out at 2 fold.

B6: chCB6-huIgG1 K326E (antibody, name in EU numbering)
heavy: not shown
light: QIVLTQSPAIMSASPGEKVTMTCRASSSVSHMHWYQQKSGTSPKRWIYDTSKLASGVPARFSGSGSGTSYSLTISSVEAEDAATYYCQQWSSNPLTFGAGTKLELKRTVAAPSVFIFPPSDEQLKSGTASVVCLLNNFYPREAKVQWKVDNALQSGNSQESVTEQDSKDSTYSLSSTLTLSKADYEKHKVYACEVTHQGLSSPVTKSFNRGEC
notes: copies: 2 + 2
For the molecule B6, the binding result in test [3] was “binds”.

B7: chCB6-huIgG1 E293D (antibody, name in EU numbering)
heavy: not shown
light: QIVLTQSPAIMSASPGEKVTMTCRASSSVSHMHWYQQKSGTSPKRWIYDTSKLASGVPARFSGSGSGTSYSLTISSVEAEDAATYYCQQWSSNPLTFGAGTKLELKRTVAAPSVFIFPPSDEQLKSGTASVVCLLNNFYPREAKVQWKVDNALQSGNSQESVTEQDSKDSTYSLSSTLTLSKADYEKHKVYACEVTHQGLSSPVTKSFNRGEC
notes: copies: 2 + 2
As for B7, in test [3], the “fold decrease in binding vs WT” value came out at 4 fold.

B8: chCB6-huIgG1 K326N (antibody, name in EU numbering)
heavy: not shown
light: QIVLTQSPAIMSASPGEKVTMTCRASSSVSHMHWYQQKSGTSPKRWIYDTSKLASGVPARFSGSGSGTSYSLTISSVEAEDAATYYCQQWSSNPLTFGAGTKLELKRTVAAPSVFIFPPSDEQLKSGTASVVCLLNNFYPREAKVQWKVDNALQSGNSQESVTEQDSKDSTYSLSSTLTLSKADYEKHKVYACEVTHQGLSSPVTKSFNRGEC
notes: copies: 2 + 2
Regarding B8, the binding result in test [3] was “binds”.

B9: chCB6-huIgG1 E333D (antibody, name in EU numbering)
heavy: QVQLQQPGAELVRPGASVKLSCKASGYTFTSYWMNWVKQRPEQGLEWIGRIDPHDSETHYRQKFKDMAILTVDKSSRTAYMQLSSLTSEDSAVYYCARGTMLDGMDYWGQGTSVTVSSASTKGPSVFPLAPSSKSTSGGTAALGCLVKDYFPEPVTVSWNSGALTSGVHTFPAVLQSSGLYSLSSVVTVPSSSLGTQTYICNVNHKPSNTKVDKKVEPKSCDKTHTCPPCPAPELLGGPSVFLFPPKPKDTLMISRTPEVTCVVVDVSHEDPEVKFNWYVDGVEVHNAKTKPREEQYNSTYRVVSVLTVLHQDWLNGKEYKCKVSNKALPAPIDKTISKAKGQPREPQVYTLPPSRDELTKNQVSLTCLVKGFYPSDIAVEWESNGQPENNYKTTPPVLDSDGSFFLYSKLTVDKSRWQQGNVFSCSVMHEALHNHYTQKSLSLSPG
light: QIVLTQSPAIMSASPGEKVTMTCRASSSVSHMHWYQQKSGTSPKRWIYDTSKLASGVPARFSGSGSGTSYSLTISSVEAEDAATYYCQQWSSNPLTFGAGTKLELKRTVAAPSVFIFPPSDEQLKSGTASVVCLLNNFYPREAKVQWKVDNALQSGNSQESVTEQDSKDSTYSLSSTLTLSKADYEKHKVYACEVTHQGLSSPVTKSFNRGEC
notes: copies: 2 + 2
In the case of B9, the “fold decrease in binding vs WT” value with human C1q (Sigma C0660) [1] turned out to be 2 fold. The binding result in test [2] and in test [3] was “binds” in each case.

B10: chCB6-huIgG1 E294A (antibody, name in EU numbering)
heavy: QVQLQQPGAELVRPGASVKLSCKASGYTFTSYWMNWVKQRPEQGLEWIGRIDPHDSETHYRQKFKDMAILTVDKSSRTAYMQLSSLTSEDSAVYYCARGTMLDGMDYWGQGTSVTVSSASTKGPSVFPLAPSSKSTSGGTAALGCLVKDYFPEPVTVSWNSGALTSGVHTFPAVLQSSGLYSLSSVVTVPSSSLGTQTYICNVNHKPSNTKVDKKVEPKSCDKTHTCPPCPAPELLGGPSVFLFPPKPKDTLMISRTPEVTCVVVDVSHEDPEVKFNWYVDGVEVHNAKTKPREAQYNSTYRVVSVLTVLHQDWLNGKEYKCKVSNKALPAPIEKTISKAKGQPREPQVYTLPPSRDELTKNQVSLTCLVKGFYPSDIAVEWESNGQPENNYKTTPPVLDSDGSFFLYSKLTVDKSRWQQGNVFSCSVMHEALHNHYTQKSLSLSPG
light: QIVLTQSPAIMSASPGEKVTMTCRASSSVSHMHWYQQKSGTSPKRWIYDTSKLASGVPARFSGSGSGTSYSLTISSVEAEDAATYYCQQWSSNPLTFGAGTKLELKRTVAAPSVFIFPPSDEQLKSGTASVVCLLNNFYPREAKVQWKVDNALQSGNSQESVTEQDSKDSTYSLSSTLTLSKADYEKHKVYACEVTHQGLSSPVTKSFNRGEC
notes: copies: 2 + 2
As to B10, in the test with human C1q (Sigma C0660) [1], the “fold decrease in binding vs WT” value was 3 fold.

B11: chCB6-huIgG1 L234D (antibody, name in EU numbering)
heavy: not shown
light: QIVLTQSPAIMSASPGEKVTMTCRASSSVSHMHWYQQKSGTSPKRWIYDTSKLASGVPARFSGSGSGTSYSLTISSVEAEDAATYYCQQWSSNPLTFGAGTKLELKRTVAAPSVFIFPPSDEQLKSGTASVVCLLNNFYPREAKVQWKVDNALQSGNSQESVTEQDSKDSTYSLSSTLTLSKADYEKHKVYACEVTHQGLSSPVTKSFNRGEC
notes: copies: 2 + 2
Take B11: in test [3], the “fold decrease in binding vs WT” value worked out at 4 fold.

B12: chCB6-huIgG1 Y296S (antibody, name in EU numbering)
heavy: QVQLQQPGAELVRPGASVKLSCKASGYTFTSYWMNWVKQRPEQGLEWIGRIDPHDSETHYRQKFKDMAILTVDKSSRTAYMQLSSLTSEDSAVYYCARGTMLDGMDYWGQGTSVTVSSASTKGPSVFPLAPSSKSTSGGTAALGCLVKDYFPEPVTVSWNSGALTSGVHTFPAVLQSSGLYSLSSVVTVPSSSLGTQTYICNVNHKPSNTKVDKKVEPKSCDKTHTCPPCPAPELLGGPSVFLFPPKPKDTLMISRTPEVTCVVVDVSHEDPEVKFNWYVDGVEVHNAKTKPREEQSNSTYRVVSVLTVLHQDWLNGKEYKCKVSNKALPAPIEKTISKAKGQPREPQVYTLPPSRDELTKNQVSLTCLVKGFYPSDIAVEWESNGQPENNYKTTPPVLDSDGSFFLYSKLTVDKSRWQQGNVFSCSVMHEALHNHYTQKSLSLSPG
light: QIVLTQSPAIMSASPGEKVTMTCRASSSVSHMHWYQQKSGTSPKRWIYDTSKLASGVPARFSGSGSGTSYSLTISSVEAEDAATYYCQQWSSNPLTFGAGTKLELKRTVAAPSVFIFPPSDEQLKSGTASVVCLLNNFYPREAKVQWKVDNALQSGNSQESVTEQDSKDSTYSLSSTLTLSKADYEKHKVYACEVTHQGLSSPVTKSFNRGEC
notes: copies: 2 + 2
As for B12, the “fold decrease in binding vs WT” value in the test with human C1q (Sigma C0660) [1] was 5 fold; with human C1q (Sigma C0660) [4], 4 fold.

B13: chCB6-huIgG1 K326D (antibody, name in EU numbering)
heavy: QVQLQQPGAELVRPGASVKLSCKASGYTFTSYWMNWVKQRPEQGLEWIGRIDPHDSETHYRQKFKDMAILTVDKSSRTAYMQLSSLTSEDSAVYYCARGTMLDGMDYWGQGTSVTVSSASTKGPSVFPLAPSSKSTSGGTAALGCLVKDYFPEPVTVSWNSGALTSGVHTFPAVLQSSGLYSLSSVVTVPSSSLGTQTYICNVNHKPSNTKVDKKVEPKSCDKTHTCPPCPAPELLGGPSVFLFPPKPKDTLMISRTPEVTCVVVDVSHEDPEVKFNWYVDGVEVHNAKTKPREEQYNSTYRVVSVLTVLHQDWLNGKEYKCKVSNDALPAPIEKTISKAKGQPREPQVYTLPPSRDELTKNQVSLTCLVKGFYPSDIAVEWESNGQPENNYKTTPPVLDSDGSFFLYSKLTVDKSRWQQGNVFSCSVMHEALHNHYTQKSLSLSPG
light: QIVLTQSPAIMSASPGEKVTMTCRASSSVSHMHWYQQKSGTSPKRWIYDTSKLASGVPARFSGSGSGTSYSLTISSVEAEDAATYYCQQWSSNPLTFGAGTKLELKRTVAAPSVFIFPPSDEQLKSGTASVVCLLNNFYPREAKVQWKVDNALQSGNSQESVTEQDSKDSTYSLSSTLTLSKADYEKHKVYACEVTHQGLSSPVTKSFNRGEC
notes: copies: 2 + 2
Consider B13, for which, in the test with human C1q (Sigma C0660) [1], the “fold increase in binding vs WT” value came out at 2 fold. Further, the binding result in test [2] and in test [3] was “binds” in each case.

B14: chCB6-huIgG1 K326Q (antibody, name in EU numbering)
heavy: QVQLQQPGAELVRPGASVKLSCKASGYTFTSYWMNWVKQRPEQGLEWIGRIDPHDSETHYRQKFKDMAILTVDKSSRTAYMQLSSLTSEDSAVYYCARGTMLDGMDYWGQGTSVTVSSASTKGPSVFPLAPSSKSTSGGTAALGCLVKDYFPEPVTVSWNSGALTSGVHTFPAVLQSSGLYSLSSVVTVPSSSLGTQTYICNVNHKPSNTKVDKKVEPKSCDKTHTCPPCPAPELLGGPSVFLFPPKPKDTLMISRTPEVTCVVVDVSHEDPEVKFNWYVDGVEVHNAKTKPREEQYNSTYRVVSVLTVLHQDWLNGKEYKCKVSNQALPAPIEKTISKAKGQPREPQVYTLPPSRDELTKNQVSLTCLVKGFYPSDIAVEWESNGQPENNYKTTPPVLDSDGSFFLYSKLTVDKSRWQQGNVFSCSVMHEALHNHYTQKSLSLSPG
light: QIVLTQSPAIMSASPGEKVTMTCRASSSVSHMHWYQQKSGTSPKRWIYDTSKLASGVPARFSGSGSGTSYSLTISSVEAEDAATYYCQQWSSNPLTFGAGTKLELKRTVAAPSVFIFPPSDEQLKSGTASVVCLLNNFYPREAKVQWKVDNALQSGNSQESVTEQDSKDSTYSLSSTLTLSKADYEKHKVYACEVTHQGLSSPVTKSFNRGEC
notes: copies: 2 + 2
Consider B14, for which the binding result (with human C1q (Sigma C0660) [1]; in test [2]; in test [3]) was “binds” each time.

B15: chCB6-huIgG1 K334E (antibody, name in EU numbering)
heavy: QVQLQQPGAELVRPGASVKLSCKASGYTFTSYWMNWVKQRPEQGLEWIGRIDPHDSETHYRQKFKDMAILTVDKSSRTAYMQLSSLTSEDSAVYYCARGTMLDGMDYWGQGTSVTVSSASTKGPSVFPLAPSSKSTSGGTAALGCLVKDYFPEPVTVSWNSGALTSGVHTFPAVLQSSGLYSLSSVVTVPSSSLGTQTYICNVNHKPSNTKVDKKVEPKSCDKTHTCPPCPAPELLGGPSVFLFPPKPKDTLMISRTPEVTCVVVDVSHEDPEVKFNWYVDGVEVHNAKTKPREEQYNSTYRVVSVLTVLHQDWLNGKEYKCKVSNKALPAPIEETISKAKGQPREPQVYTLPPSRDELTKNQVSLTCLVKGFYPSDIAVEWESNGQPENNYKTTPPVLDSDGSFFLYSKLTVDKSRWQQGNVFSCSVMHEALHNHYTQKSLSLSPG
light: QIVLTQSPAIMSASPGEKVTMTCRASSSVSHMHWYQQKSGTSPKRWIYDTSKLASGVPARFSGSGSGTSYSLTISSVEAEDAATYYCQQWSSNPLTFGAGTKLELKRTVAAPSVFIFPPSDEQLKSGTASVVCLLNNFYPREAKVQWKVDNALQSGNSQESVTEQDSKDSTYSLSSTLTLSKADYEKHKVYACEVTHQGLSSPVTKSFNRGEC
notes: copies: 2 + 2
Regarding B15, the binding result (with human C1q (Sigma C0660) [1]; in test [2]; in test [3]) was “binds” each time.

B16: chCB6-huIgG1 F241H (antibody, name in EU numbering)
heavy: not shown
light: QIVLTQSPAIMSASPGEKVTMTCRASSSVSHMHWYQQKSGTSPKRWIYDTSKLASGVPARFSGSGSGTSYSLTISSVEAEDAATYYCQQWSSNPLTFGAGTKLELKRTVAAPSVFIFPPSDEQLKSGTASVVCLLNNFYPREAKVQWKVDNALQSGNSQESVTEQDSKDSTYSLSSTLTLSKADYEKHKVYACEVTHQGLSSPVTKSFNRGEC
notes: copies: 2 + 2
In the case of B16, the “fold decrease in binding vs WT” value in test [3] stood at 9 fold.

B17: chCB6-huIgG1 K334N (antibody, name in EU numbering)
heavy: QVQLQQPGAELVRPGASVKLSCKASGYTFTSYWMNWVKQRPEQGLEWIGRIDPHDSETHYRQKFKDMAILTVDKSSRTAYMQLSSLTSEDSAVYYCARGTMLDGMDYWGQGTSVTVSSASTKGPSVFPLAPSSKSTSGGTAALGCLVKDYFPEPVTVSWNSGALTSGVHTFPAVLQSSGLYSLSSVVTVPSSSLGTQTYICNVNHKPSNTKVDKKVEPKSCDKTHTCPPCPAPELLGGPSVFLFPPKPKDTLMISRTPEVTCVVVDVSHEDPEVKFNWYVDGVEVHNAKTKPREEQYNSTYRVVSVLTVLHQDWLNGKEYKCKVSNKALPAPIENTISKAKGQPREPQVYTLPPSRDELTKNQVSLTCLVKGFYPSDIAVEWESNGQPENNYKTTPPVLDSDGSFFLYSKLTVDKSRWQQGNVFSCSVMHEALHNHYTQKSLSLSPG
light: QIVLTQSPAIMSASPGEKVTMTCRASSSVSHMHWYQQKSGTSPKRWIYDTSKLASGVPARFSGSGSGTSYSLTISSVEAEDAATYYCQQWSSNPLTFGAGTKLELKRTVAAPSVFIFPPSDEQLKSGTASVVCLLNNFYPREAKVQWKVDNALQSGNSQESVTEQDSKDSTYSLSSTLTLSKADYEKHKVYACEVTHQGLSSPVTKSFNRGEC
notes: copies: 2 + 2
B17: the binding result (with human C1q (Sigma C0660) [1]; in test [2]; in test [3]) was “binds” in each case.
